Laboratory results reported in patent US5965725A, “Polypeptides, and preparation and DNA encoding thereof” (Seikagaku Kogyo Kabushiki Kaisha, priority 1994, dated 1999).
Ends that are not written are not given here.

B1: polypeptide obtained by Example 1: Purified S5 fraction polypeptide from small granules of horseshoe crab hemocytes; 79 amino acids, about 8,200 by SDS-PAGE (protein)
chain: NPLIPAIYIGATVGPSVWAYLVALVGAAAVTAANIRRASSDNHSCAGNRGWCRSKCFRHEYVDTYYSAVCGRYFCCRSR

Legend:
Type in all cases: cell-based
Staphylococcus aureus [1] = experiment: Antimicrobial activity, growth inhibition at a single concentration (colony count); conditions: 50 μl of 40 μg/ml polypeptide added to 450 μl of 5,000 CFU/ml suspension in 10 mM phosphate buffer pH 7.0; 37° C. 1 hr
Method: (§1) In addition, Staphylococcsii aureus was suspended in 10 mM phosphate buffer, pH 7.0, at a concentration of 5,000 CFU/ml and 450 μl of the suspension was mixed with 50 μl each of polypeptide fraction T3 (polypeptide of [Formula 4]), T6 (polypeptide of [Formula 5]) (SEQ ID NO:4), and a polypeptide obtained by Example 1 each having a concentration of 40 μg/ml, and as a control 10 mM phosphate buffer, pH 7.0. The mixtures were incubated at 37° C. for 1 hr. Then, 100 μl of incubated mixture was inoculated in an agar medium, cultured at 37° C. for 12 hrs. and the number of colonies were counted with naked eye.

Escherichia coli [2] = experiment: as above; conditions: 50 μl of 40 μg/ml polypeptide added to 450 μl of 10,000 CFU/ml suspension in 10 mM phosphate buffer pH 7.0; 37° C. 1 hr
Method: as §1, with “Escherichia coli” for “In addition, Staphylococcsii aureus”, “10,000” for “5,000”, “4]) (SEQ ID NO:3),” for “4]),”

[3] = tested on: Salmonella typhimurium LT2(S); experiment: Determination of antimicrobial activity (colony count after 1 hr incubation in hypotonic buffer); conditions: 10 mM phosphate buffer pH 7.0 (hypotonic), 37° C. 1 hr, then agar culture 12 hrs
Method: (§2) Various microorganisms shown in Table 3 were suspended in 10 mM phosphate buffer, pH 7.0 (hypotonic solution). In 900 μl of 5,000-10,000 CFU/ml suspension, 100 μl of 2-fold serial diluted polypeptide solution at a concentration of 20 μg/ml obtained by Example 1 was added and incubated at 37° C. for 1 hr. Then, 100 μl of incubated mixture was inoculated in an agar medium, cultured at 37° C. for 12 hrs. and the number of colonies was counted with naked eye (see Infections and Immunity, 42, 10-14 (1983)). CFU means colony forming unit.

S. minnesota Re = experiment: as above; conditions: 10 mM phosphate buffer pH 7.0 (hypotonic), 37° C. 1 hr, then agar culture 12 hrs
Method: as §2

Escherichia coli [4] = experiment: as above; conditions: 10 mM phosphate buffer pH 7.0 (hypotonic), 37° C. 1 hr, then agar culture 12 hrs
Method: as §2

Staphylococcus aureus [5] = experiment: as above; conditions: 10 mM phosphate buffer pH 7.0 (hypotonic), 37° C. 1 hr, then agar culture 12 hrs
Method: as §2

Candida albicans = experiment: as above; conditions: 10 mM phosphate buffer pH 7.0 (hypotonic), 37° C. 1 hr, then agar culture 12 hrs
Method: as §2

Klebsiella pneumoniae = experiment: as above; conditions: 10 mM phosphate buffer pH 7.0 (hypotonic), 37° C. 1 hr, then agar culture 12 hrs
Method: as §2

Molecule	inhibited the growth of Staphylococcus aureus at a rate of (Staphylococcus aureus [1])	inhibited the growth of Escherichia coli at a rate of (Escherichia coli [2])	IC50 (μg/ml) (hypotension) [3] [µg/mL]	IC50 (μg/ml) (hypotension) (S. minnesota Re) [µg/mL]	IC50 in hypotonic buffer (Escherichia coli [4]) [µg/mL]	IC50 (μg/ml) (hypotension) (Staphylococcus aureus [5]) [µg/mL]	IC50 (μg/ml) (hypotension) (Candida albicans) [µg/mL]	IC50 (μg/ml) (hypotension) (Klebsiella pneumoniae) [µg/mL]
T3: Trypsin degradation fraction of the Example 1 polypeptide, eluted at 27 min; 42 residues, C-terminal defensin-like part (ASSDNHSCAGNRGWCRSKCFRHEYVDTYYSAVCGRYFCCRSR; not fully specified (bridges); cysteine pairing not given here)	about 30%	about 90%						
B1	almost completely	≥ 95%	20	< 0.6	2.5	< 2.5	10 to 20	< 1.3
